Laboratory results taken from PMC7073461.

Biological target: T7 DNAP (complex of T7 gp5 and Escherichia coli thioredoxin) (bacteriophage T7 | Escherichia coli) (UniProt P00581)
UniProt P00581, sequence (P00581 whole entry, chain 1 of 2): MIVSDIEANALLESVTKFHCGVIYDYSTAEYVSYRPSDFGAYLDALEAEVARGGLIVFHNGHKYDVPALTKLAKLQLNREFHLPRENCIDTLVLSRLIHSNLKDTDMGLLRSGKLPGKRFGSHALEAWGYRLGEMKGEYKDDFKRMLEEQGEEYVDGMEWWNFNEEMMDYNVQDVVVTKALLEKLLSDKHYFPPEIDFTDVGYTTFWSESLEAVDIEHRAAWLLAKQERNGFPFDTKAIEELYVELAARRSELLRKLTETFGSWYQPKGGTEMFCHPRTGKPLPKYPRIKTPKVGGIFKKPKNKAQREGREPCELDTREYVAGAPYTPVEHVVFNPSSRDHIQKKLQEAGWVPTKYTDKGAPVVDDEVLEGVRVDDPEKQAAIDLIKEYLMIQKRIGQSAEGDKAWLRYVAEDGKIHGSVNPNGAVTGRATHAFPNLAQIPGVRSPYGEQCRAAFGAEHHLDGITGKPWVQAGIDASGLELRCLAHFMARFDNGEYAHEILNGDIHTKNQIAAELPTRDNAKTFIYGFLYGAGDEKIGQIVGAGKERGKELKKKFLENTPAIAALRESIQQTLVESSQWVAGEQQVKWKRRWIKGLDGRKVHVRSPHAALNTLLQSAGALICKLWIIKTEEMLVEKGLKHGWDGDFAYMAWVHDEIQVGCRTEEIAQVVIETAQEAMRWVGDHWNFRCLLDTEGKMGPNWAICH
UniProt P00581, sequence (P0AA25 whole entry, chain 2 of 2, further chain): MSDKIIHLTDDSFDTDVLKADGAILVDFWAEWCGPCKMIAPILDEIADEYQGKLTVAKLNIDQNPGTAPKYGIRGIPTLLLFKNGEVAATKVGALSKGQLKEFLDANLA

Pol/Exo ratio (nucleotides incorporated per nucleotide excised) during leading strand synthesis on minicircle DNA, 150 μM dVTPs and 500 μM dTTP; 50–60% lower than with the WT T7 helicase: 5.7
Substance: C-tail mutant of T7 gp4A′ (T7 HelicaseΔC17) (enzyme)
